The data set in a line: label from the status in PepcDB records.
With “MASSEGLASVDPWSFRQNFNIDSWLLSDSFSHDSDILAKALHRSISTSTESSPLSPSSFFDSSTAAVDFSPPQTLSNVSFGSDPEIPAASALGLGKRKRGPGVSGGKQTKRRSRVSNKKSQTTFITADAANFRQMVQQVTGAKFLGSSNSIFAPIVKPEPHRLASRLPPSCGNLDRSSAVPTLDTSSFLSNHHQENIITDLGAPTGSFHHQSSAGTTTANVGGGSSAVELDSYPSFPTLESWKVM”, the protein production entry is reported as “failed”.
To “MKILYIVLDGAADSPTSPRKTLEEASKPNIDSLGSHAVCGMVYTVKPGVAPQSDYATLSLLGYNPDEYYPGRGPLEAFGAGIEMRRGDIALRANFATVDPGTLRIIDRRVGRSLTSREARELASAVDGMELEDGEGTALFRATIGHRGVLVLRHRSKPLSDAISNTDPAYERRGRFSVALEKYEPFIKLSNPLVEDEAAVLAARMLNEFTLKAVEILDSHPVNLAREKRGLLKANAILSRDAGGLPEEKPPSFQERFGLRGASIVEMVVERGISRYIGLDDIRVEIEGRAREEVYREEAARAVEALETHDLVYVHLKGPDEPGHDGSFEGKIRAVEDIDKHFFAPLLDRLSSAGLEPAFVVTSDHATPWDVGAHSGDPVPLMISHQSIQGSIGKFSETVCLRGRLGTIIGGYRIIPKTLSLLAG” belongs “not failed”; to “MDPEVFAQARLRMDQLTKPPRALGYLEEVALRLAALQGRVKPELGRGAVVVAAADHGVVAEGVSAYPQEVTRQMVLNFLRGGAAINQFALAADCAVYVLDVGVVGELPDHPGLLKRKVRPGTANLAQGPAMTPEEAERALLAGREAARRAIAEGATLLAAGDMGIGNTTAAAALTAALLGLPPEAVVGRGTGVGEEGLRRKRQAVARALARLHPGMGPLEVAAEVGGLELVAIAGIYLEGYEAGLPLVLDGFPVTAGALLAWKMAPGLRDHLFAGHLSREPGHRHQLEALGLRPLLDLDLALGEGTGAVLAMPLLRAAARILHMATFQEAGVSRG”, “not failed”.
The value for “MSNIITYLKNNSNLTFDELALNDVDILCLNEFGYISFEKLINTTEMKSVLVCELYHEYLQTMAKSYSFMFTSQRHDLCQLMMTSKRFKNLTLSYYRAEISLEFEKQFAAMVFTIPNINYHQVVFRGTDANLIGWKEDFKLTYMREISAHRSAIKYLNTILPYFDKVVLSGHSKGGNLALYAAMFTKPDLKAKIDLIWLIDSPGLQKTLLPTTEYKTTKQKCIRLLPEESIVGMMLYSDIEPLIISSNARGILQHDVTTWEIQEPAILKTGTGLSLKSICFEKTFQQWMAELKSQERKLFFDLLFDSFLSSGVSSLDDFNLASRAKMMKAFHSFRELDDDKKRLFNKSLKLLVTIFWGAYHDNSRETK” was “failed”.
To “QALPEKALDSFIVTGLSKRGWTTWLTAIVDSRVVAIAPFVIDLLDTRAALEHMYQSYGGNWPIAFTPYYLDEVDKKLDTASFAKLMQIIDPLQYMGTEYQSRLSIPKYIINASGDDFYVPDNTDFYYDKLPGEKALRVAPNASHSGIKAFSEQSLISFVNR” belongs “failed”.
For the sequence “MPAFSTRHLGAVAAALALTVASPAATASAAPDAPAGLREVMFVGNNWDGTADVIRSTGDFARIGRIDVVPDKAERMAEINADPIKWIYFQAIRNGVGEGHDQLVDDMYSTPDGTSVVVSRPSFADVVSVDLATGDINWRFPVSGYRSDHMAVSPDGTRVAVSASTSNTVHVLDIRTGEQVGSFGTGDKPHENIFTRDGRYIWNMSIGDVNTALDAPWLDWTKGDRRITVVDAKTYRQVKVIDMRQRLDAIGLGDHSDAVRPAVFSPDESKLYFQVSFFNGFFEYDVAGDRITRTKTLPKNPATSEDRTTWVNDSRHHGLSMSPDGARICVAGTMDDYATVVNRDTLEEGPLVPAAKPYWATVSGDGTHCVVSESGADQVTAIDFATGEKSVSVPVGDHPQRVRIGRVAADWTGPSAG”, the protein production result is recorded as “failed”.
With “MLHGLKQRLEALHHPGELEGSPQNLHQLLGVSIEQSVPQAQTMLVERHLASLTGDEARLLAALSDGSAFALLTLYSGSRFSRGEVLYRYSNAGRAAGIQCNDFIALYLNHLFAQGLVIASDFTESLRTDYELCEGDSDFRKAQAELQIHLPKLSIRRETLRISPLGRQLWTLMTTPADIEE”, the protein production result is on record as “not failed”.
With “MASFCNSWKRKHNEAIKLSEEIDGMILERSSLAETSSYARGHASYMRRKITILANGVQTLKNLLAESQGKSISAKEMSRCKDMVEDLRSKAYQMASALDMLKFSNIGSLLGQDDIMSRVIDMDNQEIVGFQRTTMKGKLKGVMHLKREALAMNMELGLQTRLIDRLDHHVDVSASDVEELQRSIDTGVCMTLLLSVVVVVFGLSEFVKFGRRRILG”, the protein production result is listed as “failed”.
To “MSTSKAITLTLFIATTLLAPCNAAANATTKPLFPAILIFGDSTVDTGNNNYPLPTIFRAEHFPYGMDLPDGKANGRFSNGKLISDIIATKLNIKEFIPPFLQPNLSDQDILTGVCFASAGAGYDDLTSLSTQAIRVSEQPNMFKSYIARLKGIVGDKKAMEIINNAFVVVSAGPNDFILNYYEIPSRRLEYPFISGYQDFILKRLENFVRELYSLGVRNVLVGGLPPMGCLPIHMTAKFRNIFRFCLEHHNKDSVLYNEKLQNLLPQIEASLPGSKFLYADVYNPMMEMIQNPSKYGFKETKRGCCGTGFLETSFMCNVFSPVCQNRSEFLFFDSIHPSEATYNVIGNLLDPLIRGKFQA” belongs “failed”; to “MKYPIVPLTKFGLFRAQTYAVLKRPYLVTALVSYFMVALLVIIYLNKAPSFTSDMEMVLPGTGSSNSVSLDNVGQVVSQTNTPFSGGGFNPRVNYKEMLSSRGVRARAAKKLHLSLEDLGEPRIKLTEQTSIISLEMSANGQELAQAKTLALYESLQDELNNLRADEVLRRDQSIEQVLDRYRERMNITRNAIVDFQQRSIVVSTDQMDQLVRTLSGVREKHLYVKAETKQLQEYIYQLSDELGVSPKLAGQAFALQSDVEFRAYITELKESITQLTEYSSRWGVNHPKVKAQQKRLNFTRISINERSSQMYGVNSNEIFNSLNLDLNPKRSELFADLIDAYAKQKGQESMLEDLGRSALHLGDQLKIYSREIVELERLQREFNMAEAIFTSAAARLEASKSDVFASYPVLQMLTTPSYPMKQSSPKNIIAFIGAITGFIFITLGLIILSQRNKLIQIILKKEETTSSNS”, “failed”; to “MILSMSGVVLLGIVVFLFFRKDGLKGTHACTCALFGFYLSSTAIAPSIKAGGASLASLLGGIRF”, “failed”.
Regarding “MIYLQNFITTTIQLNIYLILVIGLLYVIIHYYRNKGVNAFLDIYLNYIPVLTHEFGHVLFNKLAGGKAKDLVIVTSPRERKVTSQQGYAITQSKGYLGQFITTIGGYLMPPLMFLTGLVSIHYQYPSIFITIYLFIFIYYLFITSRKLSPLIVIILISSLLYLVFKQDHQWFIYDIVTLSYHFILGVLLGEILQSSWTIFRLTFQRPKPSWDGSALTKVTRVPTFIFSLVWILFNLYTVYLLIKYTIL”, the protein production entry is reported as “failed”.
To “EETRTEVEKKNYMNNAEEAKDVLLGVYRTNTLDAMYGYYLSILFNLGTDISQVEGSGNENFRIIPTNSFPTTQSEVQQTWAALYTGIYRANDFLERISNKIGSYTTTDKKLATLYIAEARALRGMFYFELVRRFGNVVLMTSTQMSNQNPATYVQSAPEKVYEYIEDDLLYACDILPYATDDQYRESNDYRFSKGAALGLLTKVYATWAGYPVKDESKWEAAAKTARILVESGKHGLLKDYEQLWKNTCNGTWDPTESLIEISFYSPTVSGNSDPVGRIGKWNGVKTTAIAGVRGSCAANVKVVHTFVLDWREDVSDIRRDLSIANYQYTDTKKSLWVAGASDTDESAAEKDADPTKAQKNKQNYTPAKWDIQKYVTTNSFINNDKSNVNWYFLRYADVLLLYAEALNEWKHGPDAEAYNAINAVRRRGYGNPSNTSACDLPQGLDETSFREAVRKERSYELSFEGHRRQDLIRWGIYYKTVQATAKELGYWWEGTGSPNYSVATYTEEGKHELFPIPQRDMDLCIQFNQNPKW” belongs “not failed”.
With “MSNALKSIDFRTNKSKDAVIVVELASPAAIVDVKRVQEGLSIDLMNTSVKDEQLYLLDVKDFATVVESVEVFRDTSTTRLVAYIDEEYTHDYRLTGRYLEITVSKLKPNEKVPDKSILEKEGKLISINFQDIPVRNVLQLIADYNQFNLVVSDSVEGNLTLRLDGVPWQQVLDIILQVKGLDKRVDGNVILVAPTDELDLREKQQLEKQKLTEEMGELSSEIIKVNFAKASDIAEMINGEGNISMLSERGSMTIDERTNSLLIRELPENIAVIREIIESLDIPVKQVQIEARIVTISEGNMDELGIRWGFTSINGNNTVGGSIENNLATIGLYEGGGDGEGEEGGVGIDDFLNVNLAATNPNAASIAFQVAKLGSDTLLDLELSALQQESKAEIISSPRLITTNKKPAYIEQGTEIPYLESSSSGATSVTFKKAVLSLKVTPQITPDNRLVLDLSVTQDRPGKVVKTGTGEAMAIDTQRIGTQVLVNNGETVVLGGIFQHSITNSVDKVPLLGDLPLLGALFRRSYENVGKSELLIFVTPKVVIQLEHHHHHH”, the protein production result is “not failed”.
As for “MSLQTKILIIDGDKDNCQKLKGFLEEKGISIDLAYNCEEAIGKIFSNKYDLIFLEIILSDGDGWTLCKKIRNVTTCPIVYMTYINEDQSILNALNSGGDDYLIKPLNLEILYAKVKAILRRMNSYVNNEGHHHHHH”, the protein production entry was “not failed”.
To “MVIREALLYIAMLKLEIEALQREYEDLKITKKESLHQFQEVKVEKIGEMFQVKIKSPRGENNLVNILEAFEEMGLNVAQARASCLDSFAMEAIVAPQSKDKLCSVDDLTQTLVKALVKPSVPL” belongs “failed”; to “FDENWGADEELLLIDACETLGLGNWADIADYVGNARTKEECRDHYLKTYIE”, “not failed”; to “MNWVTHKPTFEFDNFSPFIRANTAWLGHLEFAYDLVRFEKPEILVELGTHMGASFFSFCQGVKDGGLATKCFAVDTWTGDGHTGPYGEGVFHIVDKVVKTSYPNIGNLIKSTFDEAVDQFQDGTINLLHIDGYHTYEAVSHDYKTWLPKLADNGIVLFHDIEVKDRNFGVYKFWDEVKAKYPHFQFQHSYGLGVLFPKGCSDRFKEILKNKEEIQDMYKLEHHHHHH”, “not failed”.
To “MNSSESKSLVVIGGGGHASVLVDILRSQQREILAIVSPENISQRRIFSGITHLKNDDDILRFSPDSVNLVNGVGMLPKSGLKRKLNEYFLSLGYTFETVISDSAQVSSFAEIEQGAQVFSGAIIQAGVVIDAHTIINSGVIIEHDCHIGEYNHIAPKATLCGQVTTHSNVYVGANATVIQNITLEQGSIVGAGAIVTKNISSEQICYPSRSVLK” belongs “failed”.
The value for “ILTTENQGVFTITLNRIDKKNALTNDMYKQLCQYFAYAEQTSSIHCVVIQGNEQCFCAGNDLHDFIQCSADDELAALAFVKVLSEFTKPLVAGVAGVAVGIGTTLLLHCDMVIAANNSKFKLPFTQLGLCPEAGSSLLLTQKVGPNKAFELMVLGQTFNAEQALSYGITNQTCQPDELLALTSDVAQAISNLPVESVMTSRRLIRQANKLALSQVISEESQAFSHLVKSEECKNILAKFFK” was “failed”.
Regarding “MSVGRIHSFETCGTVDGPGIRFIVFLQGCLMRCMYCHNRDTWDTHDGKEVTVAELIEEAKSYRHFMKASGGGITCSGGEAMLQPEFVRDFFRAAQAEGIHTCLDTNGYIRKHTDVIDEVLEASDLVMLDLKQMKDDVHKEFIGVSNTRVLDFARYLHKIGQKTWIRYVIVPGYTDDEESAHLLGNFIKDMDNIEKIELLPYHKLGAHKWEALGHDYPLEGVNPPSKETMEKMVEILSQYHNNVKY”, the protein production result was “failed”.
Take “MEMRKIGLIGGMSFESSAVYYRLVNEAVRRRRGKLHSAEVLLHSVDFQRIVDLQRAGHWDDAALLLSDVARGLVAGGADCILICSNTMHLIADAVHASVDVPLINIIDETALRLKAAGSRKPLLLATRYTMEQGFYAERMKTHDIDLMVPDADGRTLTHNVIFDELCAGQVLNASRSAVIGLIEKAKAEGADAVILGCTEICLLLDPADLPLPGFDSTAIHAEAAVEFSLRDRQ”: the protein production result is “failed”.
Regarding “MTLSAIQPNDMALYHYDSCPFCAKTRHAINELDLNIELRNIQKNHQHRIELQQGGNKTQVPCLRIGQSNGKAQWLYESGDIINFLRNRK”, the protein production entry is “failed”.

The values are drawn from a protein production outcome set (Wang et al. 2014).
